Here are results for 5 molecules from patent US5866114A, “Crystallization of M-CSFα” (Chiron Corporation, priority 1995, dated 1999).

For data set [1], the system named is NFS-60 cells. Put plainly: M-CSF dependent NFS-60 bioassay (MTT readout, compared to M-CSF standard). It is filed as cell-based. As to the method:
Fractionated products were analyzed on reducing SDS-PAGE and stained with Coomassie, according to the method of Laemmli, Nature […] 227:680-685 (1970). Biological activity was determined using the M-CSF dependent NFS-60 bioassay (See Example 10 below). Antibody neutralization experiments were carried out by pre-incubating approximately 5,000 units of M-CSF dimer with varying dilutions of the neutralizing M-CSF 5H410 Mab (made to refolded E. coli CΔ150 M-CSFα dimer) prior to bioassay. (Halenbeck et al, Bio/Technology 7:710 (1989)
The purified mutein dimers were subjected to bioassay using NFS-60 cells which is an M-CSF dependent cell line which forms colonies in the presence of active M-CSF. Standards and purified mutein samples were serially diluted 1:2 in RPMI media (10% fetal bovine serum) in a 50 microliter volume in 96-well microtiter plates. 50 microliters NFS-60 cells (ATCC NO. CRL 1838), maintained in 4000U/ml M-CSF, washed 2×, and diluted to a concentration of 1×10^5 cell/ml, were added to each sample well. Plates were incubated at 37° C., 5% CO2 for 44 h. 5 mg/ml MTT dye was added to each sample and incubation continued for 4 h. 20% SDS was added to each sample. The plates were wrapped in foil and left overnight. The absorbance of each sample was read at 570 nm and compared to a standard of known M-CSF concentration.

For data set [2], the system named is cell surface M-CSF receptor (NFS60 cell M-CSF receptors). The experiment in a line: Radioligand displacement of 125I-M-CSF from NFS-60 cell M-CSF receptors (NFS-60 receptor competition assay). The class given is binding. As to conditions: for IC50: 4° C., 20 hours, 300,000 NFS-60 cells, read-out: IC50 (concentration required to inhibit 50% of labeled M-CSF binding to the cells); for M-CSF receptor-binding ability: compared to parental M-CSFα; for fold decrease in binding affinity: relative to M-CSFα NΔ3CΔ158. As to the method:
FIG. 7 illustrates the competitive binding of M-CSF and M-CSF muteins to NFS60 cell M-CSF receptors.
The purified heterodimer was submitted to the NFS60 cell based bioassay described in Example 8. The calculated specific activity was 2.9×10^6 U/mg which correlated to a 35-fold reduction as compared to the activity of the parental M-CSF heterodimer described in Example 10. The relative binding affinity to cell surface M-CSF receptor was measured by radioligand displacement in which the displacement of ^125 I-M-CSF from an M-CSF receptor by an M-CSF mutein was measured using methods well known in the art. In brief, the following were added in a final volume of 100 μl in each well of a 96-well cell culture plate: approximately 80,000 cpm of purified recombinant human M-CSF labeled with ^125 I (using Iodobeads as described by the manufacturer, Pierce, Rockford, Ill.), 300,000 NFS-60 cells that had been washed and then grown for 18 hours in growth medium minus the normal maintenance level of M-CSF, plus unlabeled M-CSF that had been serially diluted in the same medium. The plates were incubated at 4° C. for 20 hours and the cells were collected on glass-fiber filters. Maximum binding was measured in the absence of unlabeled M-CSF and non-specific binding was measured in the presence of 1000-fold greater concentration of unlabeled M-CSF (compared to labeled M-CSF). The concentration of M-CSF required to inhibit 50% of the labeled M-CSF binding to the cells (IC50) was used to determine differences in affinity. Results are expressed as percent displacement of radioactive M-CSF versus mutein concentration (FIG. 7).
Background: In a radioligand displacement assay an active substance lowers the binding of a labelled ligand.

Data set [3] can be described thus: Bioactivity after diethylpyrocarbonate (DEPC) modification of histidines. The conditions noted are these: 1:100 DEPC:histidine ratio.

B1: 158/221F heterodimer: one chain of short clone (amino acid 4 to 158) and one chain of long clone 221F (protein, UniProt P09603 33-554, looked up, variant C157S C159S)
Macrophage colony-stimulating …: EEVSEYCSHMIGSGHLQSLQRLIDSQMETSCQITFEFVDQEQLKDPVCYLKKAFLLVQDIMEDTMRFRDNTPNAIAIVQLQELSLRLKSCFTKDYEEHDKACVRTFYETPLQLLEKVKNVFNETKNLLDKDWNIFSKNCNNSFAECSSQDVVTKPDSNSLYPKAIPSSDPASVSPHQPLAPSMAPVAGLTWEDSEGTEGSSLLPGEQPLHTVDPGSAKQRPPRSTCQSFEPPETPVVKDSTIGGSPQPRPSVGAFNPGMEDILDSAMGTNWVPEEASGEASEIPVPQGTELSPSRPGGGSMQTEPARPSNFLSASSPLPASAKGQQPADVTGTALPRVGPVRPTGQDWNHTPQKTDHPSALLRDPPEPGSPRISSLRPQGLSNPSTLSAQPQLSRSHSSGSVLPLGELEGRRSTRDRRSPAEPEGGPASEGAARPLPRFNSVPLTDTGHERQSEGSFSPQLQESVFHLLVPSVILVLLAVGGLLFYRWRRRSHQEPQRADSPLEQPEGSPLTQDDRQVELPV
modifications: heterodimer short/long clone
notes: one chain of short clone (amino acid 4 to 158) and one chain of long clone 221F
As to B1, the specific activity in data set [1] (calculated using the peak fraction of preparative Phenyl-HPLC) was 8.0×10^7 units/mg. Besides, the “biological activity of heterodimer compared to the two homodimers” value in data set [1] (refolded dimers, SE-HPLC (72 hr of refolding) or Phenyl-HPLC fractions) is recorded as “fully biologically active in vitro”.

B2: Q20A, V78K: double mutant of M-CSF, solvent accessible residues in central portion of helices A and C (protein, UniProt P09603 33-554, looked up, variant Q20A V78K)
Macrophage colony-stimulating …: EEVSEYCSHMIGSGHLQSLARLIDSQMETSCQITFEFVDQEQLKDPVCYLKKAFLLVQDIMEDTMRFRDNTPNAIAIKQLQELSLRLKSCFTKDYEEHDKACVRTFYETPLQLLEKVKNVFNETKNLLDKDWNIFSKNCNNSFAECSSQDVVTKPDCNCLYPKAIPSSDPASVSPHQPLAPSMAPVAGLTWEDSEGTEGSSLLPGEQPLHTVDPGSAKQRPPRSTCQSFEPPETPVVKDSTIGGSPQPRPSVGAFNPGMEDILDSAMGTNWVPEEASGEASEIPVPQGTELSPSRPGGGSMQTEPARPSNFLSASSPLPASAKGQQPADVTGTALPRVGPVRPTGQDWNHTPQKTDHPSALLRDPPEPGSPRISSLRPQGLSNPSTLSAQPQLSRSHSSGSVLPLGELEGRRSTRDRRSPAEPEGGPASEGAARPLPRFNSVPLTDTGHERQSEGSFSPQLQESVFHLLVPSVILVLLAVGGLLFYRWRRRSHQEPQRADSPLEQPEGSPLTQDDRQVELPV
As for B2, in data set [2], the IC50 is about 0.1 nM, the M-CSF receptor-binding ability result is given as “decreased” and the “fold decrease in binding affinity” value is reported as 5 fold. Besides, in data set [1] (Example 11), the “fold lower specific biological activity than parental M-CSFα reference standard” value was 8-10 fold and the specific biological activity is 1.4×10^7 U/mg.

B3: M-CSFαNΔ3CΔ158 H9A, H15A/M-CSFβNΔ3CΔ221C157S, C159S heterodimer: one subunit of M-CSFα NΔ3CΔ158 H9A, H15A and one subunit of M-CSFβ NΔ3CΔ221 C157S, C159S (protein, UniProt P09603 33-554, looked up, variant H9A H15A C157S C159S)
Macrophage colony-stimulating …: EEVSEYCSAMIGSGALQSLQRLIDSQMETSCQITFEFVDQEQLKDPVCYLKKAFLLVQDIMEDTMRFRDNTPNAIAIVQLQELSLRLKSCFTKDYEEHDKACVRTFYETPLQLLEKVKNVFNETKNLLDKDWNIFSKNCNNSFAECSSQDVVTKPDSNSLYPKAIPSSDPASVSPHQPLAPSMAPVAGLTWEDSEGTEGSSLLPGEQPLHTVDPGSAKQRPPRSTCQSFEPPETPVVKDSTIGGSPQPRPSVGAFNPGMEDILDSAMGTNWVPEEASGEASEIPVPQGTELSPSRPGGGSMQTEPARPSNFLSASSPLPASAKGQQPADVTGTALPRVGPVRPTGQDWNHTPQKTDHPSALLRDPPEPGSPRISSLRPQGLSNPSTLSAQPQLSRSHSSGSVLPLGELEGRRSTRDRRSPAEPEGGPASEGAARPLPRFNSVPLTDTGHERQSEGSFSPQLQESVFHLLVPSVILVLLAVGGLLFYRWRRRSHQEPQRADSPLEQPEGSPLTQDDRQVELPV
modifications: heterodimer of truncated α and β forms
Take B3: in data set [2], the “fold increase of IC50 compared to M-CSFα NΔ3CΔ158” value is reported as 30 fold and the IC50 is about 0.5 nM. For the same molecule, the “fold reduction in specific activity compared to parental M-CSF heterodimer” value in data set [1] (Example 12) amounted to 35 fold. Further, in data set [1] (Example 12, purified heterodimer), the calculated specific activity was 2.9×10^6 U/mg.

B4: M-CSF: macrophage colony stimulating factor, form not specified, treated with DEPC to modify histidines (protein, UniProt P09603 33-554, looked up)
Macrophage colony-stimulating …: EEVSEYCSHMIGSGHLQSLQRLIDSQMETSCQITFEFVDQEQLKDPVCYLKKAFLLVQDIMEDTMRFRDNTPNAIAIVQLQELSLRLKSCFTKDYEEHDKACVRTFYETPLQLLEKVKNVFNETKNLLDKDWNIFSKNCNNSFAECSSQDVVTKPDCNCLYPKAIPSSDPASVSPHQPLAPSMAPVAGLTWEDSEGTEGSSLLPGEQPLHTVDPGSAKQRPPRSTCQSFEPPETPVVKDSTIGGSPQPRPSVGAFNPGMEDILDSAMGTNWVPEEASGEASEIPVPQGTELSPSRPGGGSMQTEPARPSNFLSASSPLPASAKGQQPADVTGTALPRVGPVRPTGQDWNHTPQKTDHPSALLRDPPEPGSPRISSLRPQGLSNPSTLSAQPQLSRSHSSGSVLPLGELEGRRSTRDRRSPAEPEGGPASEGAARPLPRFNSVPLTDTGHERQSEGSFSPQLQESVFHLLVPSVILVLLAVGGLLFYRWRRRSHQEPQRADSPLEQPEGSPLTQDDRQVELPV
modifications: DEPC-modified histidines
Turning to B4, the “bioactivity after DEPC modification of histidines” value in data set [3] is reported as “significantly reduced bioactivity”.

B5: H9A, H15A: M-CSF NΔ3CΔ158 with His 9 and His 15 mutated to Ala, refolded dimer (pTAF172-2) (protein, UniProt P09603 33-554, looked up, variant H9A H15A)
Macrophage colony-stimulating …: EEVSEYCSAMIGSGALQSLQRLIDSQMETSCQITFEFVDQEQLKDPVCYLKKAFLLVQDIMEDTMRFRDNTPNAIAIVQLQELSLRLKSCFTKDYEEHDKACVRTFYETPLQLLEKVKNVFNETKNLLDKDWNIFSKNCNNSFAECSSQDVVTKPDCNCLYPKAIPSSDPASVSPHQPLAPSMAPVAGLTWEDSEGTEGSSLLPGEQPLHTVDPGSAKQRPPRSTCQSFEPPETPVVKDSTIGGSPQPRPSVGAFNPGMEDILDSAMGTNWVPEEASGEASEIPVPQGTELSPSRPGGGSMQTEPARPSNFLSASSPLPASAKGQQPADVTGTALPRVGPVRPTGQDWNHTPQKTDHPSALLRDPPEPGSPRISSLRPQGLSNPSTLSAQPQLSRSHSSGSVLPLGELEGRRSTRDRRSPAEPEGGPASEGAARPLPRFNSVPLTDTGHERQSEGSFSPQLQESVFHLLVPSVILVLLAVGGLLFYRWRRRSHQEPQRADSPLEQPEGSPLTQDDRQVELPV
modifications: residues 4-158, dimer
For B5, in data set [2], the IC50 is about 1000 nM, the M-CSF receptor-binding ability result is reported as “greatly decreased” and the “fold decrease in binding affinity” value is 50,000 fold. Moreover, the “fold reduction in biological activity versus parental M-CSF NΔ3CΔ158” value in data set [1] (Example 10) was ~10,000 fold. In addition, in data set [1] (Example 10, purified refolded mutein dimers, same assay as parental reference), the specific activity was 7.6×10^3 U/mg.
